How the values were obtained:
[1] = molecular target: T1, Human Macrophage Receptor with Collagenous Structure (MARCO), full length, on cells (human, UniProt Q9UEW3 1-520); experiment: flow cytometry, 293T (HuMARCO)
T1 construct: the cell type is named under assay; also called huMARCO; HuMARCO
T1 sequence: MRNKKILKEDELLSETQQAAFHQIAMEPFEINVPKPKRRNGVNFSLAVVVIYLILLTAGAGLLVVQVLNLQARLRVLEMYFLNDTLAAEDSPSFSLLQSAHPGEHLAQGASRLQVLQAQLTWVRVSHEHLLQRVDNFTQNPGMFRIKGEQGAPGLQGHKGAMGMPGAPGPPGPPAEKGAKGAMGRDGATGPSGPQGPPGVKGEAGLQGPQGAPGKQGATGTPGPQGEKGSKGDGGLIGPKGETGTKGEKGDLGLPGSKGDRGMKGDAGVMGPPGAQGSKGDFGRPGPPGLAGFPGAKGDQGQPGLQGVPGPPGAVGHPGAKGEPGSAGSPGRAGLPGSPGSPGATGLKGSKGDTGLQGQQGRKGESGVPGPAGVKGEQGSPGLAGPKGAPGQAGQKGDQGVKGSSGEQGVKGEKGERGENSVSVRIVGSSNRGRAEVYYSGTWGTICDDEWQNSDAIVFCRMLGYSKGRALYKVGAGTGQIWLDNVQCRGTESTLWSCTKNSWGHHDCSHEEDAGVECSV
Procedure: Supernatants were removed and cell pellets were resuspended in Ca²⁺+ and Mg²⁺+ Dulbecco's phosphate-buffered saline (D-PBS) at 1×10⁶ cells/ml. 100,000 cells/well were plated onto U-bottom 96-well plates for staining and all centrifugation steps were performed at 1500 rpm at 4° C. for 5 min and samples were kept protected from light throughout the protocol. Cells were pelleted and resuspended in 100 μl of Zombie NIR viability dye (BioLegend) prepared by diluting Zombie NIR dimethyl sulfoxide (DMSO) stock 1000-fold in D-PBS. Cells were stained by incubation for 10 min at room temperature (RT) in the dark, followed by quenching the staining reaction with the addition of 100 μl of Staining Medium (D-PBS containing 2% FBS and 2 mM ethylenediaminetetraacetic acid (EDTA). Cells were pelleted and resuspended in 100 μl of the different antibodies and hybridomas supernatants needed for screening and corresponding isotype controls in freshly prepared staining medium, such as PI-M014 and mIgG2b isotype. All mAbs were tested at the final top concentration of 100 nM (15 μg/ml) followed by an 8-point three-fold serial dilution, including 0 mg/ml control. Staining was carried out for 1 hour (hr) on ice, followed by 2 washes in Staining Medium. Cells were then pelleted and resuspended in 100 μl of allophycocyanin (APC)-conjugated goat anti-mouse IgG (Fc-specific) secondary antibody, prepared by 500-fold dilution of the antibody stocks in Staining Medium, and incubated for 30 min on ice. Plates were then washed two times with Staining Medium, followed by resuspension in 150 μl of the same buffer for acquisition on the flow cytometer (Attune NxT, Life Technologies). Flow cytometry data were analyzed using FlowJo software (version 10.6.1) and data were processed and further analyzed in Microsoft Excel and GraphPad Prism software (version 8). Half-maximal effective concentrations (EC₅₀) were calculated based on geometric mean fluorescence intensities (gMFI). In case when the plates were not able to be analyzed on the cytometer, cells were pelleted after the washes and fixed in 100 μl of 2% paraformaldehyde (PFA), prepared by diluting the 16% (w/v) stock (Thermo Fisher) in DPBS, for 15 min at RT. Cells were then pelleted and the fixative was removed, followed by resuspension in 150 μl of Staining Medium and stored at 4° C. until acquisition on the flow cytometer.

[2] = molecular target: T2, N-terminally polyhistidine tagged human MARCO ECD (147-520), recombinant (human, UniProt Q9UEW3 147-520); experiment: ELISA on recombinant human MARCO, 10 mM EDTA
T2 construct: also called PI-RG-3000; recombinant human MARCO; not shown: N-terminal polyhistidine tag
T2 sequence: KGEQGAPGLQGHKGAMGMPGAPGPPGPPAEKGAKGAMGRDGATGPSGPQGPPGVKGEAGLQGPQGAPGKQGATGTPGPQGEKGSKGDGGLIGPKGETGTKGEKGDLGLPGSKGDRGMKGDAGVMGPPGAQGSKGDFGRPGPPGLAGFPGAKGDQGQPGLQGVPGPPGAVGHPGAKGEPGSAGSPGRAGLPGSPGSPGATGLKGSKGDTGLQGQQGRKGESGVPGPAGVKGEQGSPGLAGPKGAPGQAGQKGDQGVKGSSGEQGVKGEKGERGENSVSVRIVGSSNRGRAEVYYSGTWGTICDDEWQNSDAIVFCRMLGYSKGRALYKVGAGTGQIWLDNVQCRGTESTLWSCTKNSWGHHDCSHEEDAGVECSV
Procedure: After the plates were incubated at room temperature for 1 hour or 4° C. overnight, the plates were wash 3 times with ELISA wash buffer (PBS/0.05% TWEEN-20), then hybridoma supernatant (1:5 dilution) or purified antibody (1 ug) was diluted in DPBS/Ca2+/2% FBS, DPBS without Ca2+/2 mM EDTA/2% FBS, DPBS without Ca2+/10 mM EDTA/2% FBS, and DPBS without Ca2+/50 mM EDTA/2% FBS. Plates again were incubated at room temperature for 1 hour.

[3] = molecular target: T1, Human Macrophage Receptor with …; experiment: flow cytometry, 293T HuMARCO cells
Summary of the method: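 Geometric mean fluorescence intensity from flow cytometry, analysed in FlowJo and Prism, served as the readout of binding to HEK293T cells carrying human or cynomolgus MARCO. Cells were stained with Zombie NIR for viability and plated at 100,000 cells/well. An 8-point three-fold antibody dilution from 100 nM in D-PBS/2% FBS/2 mM EDTA was applied for 1 hr on ice, followed by APC goat anti-mouse IgG for 30 min on ice, with acquisition on an Attune NxT.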

[4] = molecular target: T1, Human Macrophage Receptor with …; experiment: cell-based competition with AF488 E. coli binding to cells expressing MARCO
Procedure: Zombie NIR viability dye (BioLegend), prepared by diluting the stock 1000-fold in D-PBS, was added to the cells and incubated for 10 min at RT in the dark. The reaction was quenched by adding 1 m of 4× Staining buffer (2% FBS in DBPS containing Ca2+), followed by centrifugation at 400×g for 5 min at 4° C. Cells were then plated in V-shaped 96 well plates at a density of 100,000 cells. A488-fluorescently labeled bacteria (E. coli from Invitrogen) was added at 10 μg/ml with the anti-human MARCO antibodies of interest for a 30 min incubation at 37 C. Plates were then washed twice followed by resuspension in 100 ul of staining buffer for acquisition on the flow cytometer (Attune NxT, Life Technologies). Flow cytometry data were analyzed using FlowJo software (version 10.6.1) and data were processed and further analyzed in Microsoft Excel and GraphPad Prism software (version 8).

B1: PI-HX-3031 (antibody)
heavy: QVQLKESGPGLVQPSQTLSLTCTVSGFSLTSYHVSWVRQPPGKGLEWMGAIWTGGSIAYNSLLKSRLSISRDTSKSQVFLKMNSLQTEDTATYYCARDLSDYYSSYTSFDYWGQGVMVTVSTAETTAPSVYPLAPGTALKSNSMVTLGCLVKGYFPEPVTVTWNSGALSSGVHTFPAVLQSGLYTLTSSVTVPSSTWSSQAVTCNVAHPASSTKVDKKIVPRECNPCGCTGSEVSSVFIFPPKTKDVLTITLTPKVTCVVVDISQNDPEVRFSWFIDDVEVHTAQTHAPEKQSNSTLRSVSELPIVHRDWLNGKTFKCKVNSGAFPAPIEKSISKPEGTPRGPQVYTMAPPKEEMTQSQVSITCMVKGFYPPDIYTEWKMNGQPQENYKNTPPTMDTDGSYFLYSKLNVKKETWQQGNTFTCSVLHEGLHNHHTEKSLSHSP
light: DIQMTQSPASLSTSLGETVSIECLASEGISNDLAWYQQKSGKSPQLLIYAASRLQDGVPSRFSGSGSGTRYSLKISGMQPEDEADYFCQQSYKYPLTFGSGTKLEIKRADAAPTVSIFPPSTEQLATGGASVVCLMNNFYPRDISVKWKIDGTERRDGVLDSVTDQDSKDSTYSMSSTLSLTKADYESHNLYTCEVVHKTSSSPVVKSFNRNEC
notes: Parental rat hybridoma, rat IgG2a
For B1, the EC50 [1] was 0.141 nM and the “ELISA signal (A450)” value [2] was 0.0589.

B2: PI-HX-3043 (antibody, rat IgG2a)
heavy: QVNLLQSRAALVKPGASVKLSCKASGYTFTDYYLHWVKQSHAKSLEWIGYINPNNAYTSYNEKFKSKATLTVDKSTNTAYMELSRLTSADSATYYCARDTTDYYNLHFAYWGQGTLVTVSSAETTAPSVYPLAPGTALKSNSMVTLGCLVKGYFPEPVTVTWNSGALSSGVHTFPAVLQSGLYTLTSSVTVPSSTWSSQAVTCNVAHPASSTKVDKKIVPRECNPCGCTGSEVSSVFIFPPKTKDVLTITLTPKVTCVVVDISQNDPEVRFSWFIDDVEVHTAQTHAPEKQSNSTLRSVSELPIVHRDWLNGKTFKCKVNSGAFPAPIEKSISKPEGTPRGPQVYTMAPPKEEMTQSQVSITCMVKGFYPPDIYTEWKMNGQPQENYKNTPPTMDTDGSYFLYSKLNVKKETWQQGNTFTCSVLHEGLHNHHTEKSLSHSP
light: DIQMTQSPASLSASLGETVSIECLTSEGISNDLAWYQQKSGKSPQLLIYDASRLEDGVPSRFSGSGSGTRYSLKISGMQTEDEADYFCQQSYKYPLTFGSGTKLEIKRADAAPTVSIFPPSTEQLATGGASVVCLMNNFYPRDISVKWKIDGTERRDGVLDSVTDQDSKDSTYSMSSTLSLTKADYESHNLYTCEVVHKTSSSPVVKSFNRNEC
notes: as for B1
In the case of B2, the EC50 [1] is reported as 0.438 nM and the “ELISA signal (A450)” value [2] is reported as 0.06.

B3: PI-HX-3061 (antibody, rat IgG2a)
heavy: EVQLVESGGGLVQPGSSLKLSCVASKFTFSNYGMNWIRQAPKKGLEWIALIYYNSNNKYYADSVKGRFTISRDNSKNTLYLEMNSLRSEDTAMYYCAKSLTGGSDYFDSWGQGVMVTVSSAETTAPSVYPLAPGTALKSNSMVTLGCLVKGYFPEPVTVTWNSGALSSGVHTFPAVLQSGLYTLTSSVTVPSSTWPSQTVTCNVAHPASSTKVDKKIVPRNCGGDCKPCICTGSEVSSVFIFPPKPKDVLTITLTPKVTCVVVDISQDDPEVHFSWFVDDVEVHTAQTRPPEEQFNSTFRSVSELPILHQDWLNGRTFRCKVTSAAFPSPIEKTISKPEGRTQVPHVYTMSPTKEEMTQNEVSITCMVKGFYPPDIYVEWQMNGQPQENYKNTPPTMDTDGSYFLYSKLNVKKEKWQQGNTFTCSVLHEGLHNHHTEKSLSHSP
light: DVQMTQSPSYLAASPGESVSISCKASKSIGTFLAWYQEKPEKTNKLLIYSGSTLQSGTPSRFSGSGSGTDFTLTIRNLEPEDFAVYYCQQHDEYPFTFGSGTKLEIKRADAAPTVSIFPPSTEQLATGGASVVCLMNNFYPRDISVKWKIDGTERRDGVLDSVTDQDSKDSTYSMSSTLSLTKADYESHNLYTCEVVHKTSSSPVVKSFNRNEC
notes: Parental rat hybridoma, rat IgG2a; cross reactive with human and mouse MARCO
An EC50 [1] of 0.49 nM was found for B3 in this work.

B4: PI-HX-3021 (antibody, V domains shown)
VH: QVRLVQSGTALVRPGASVRMSCTASGYSFTDYWVSWVKQSHGQSLEWIGEIYPNSGTTNFNEKFEGKATLTVDKSTSTAYMELSRLTSEDSAIYYCTGEGTFDYWGQGVMVTVSS
VL: EIVLTQSPTTMAASPGEKVTITCRPSSSLSNMHWFQQKSGTSPKPWIYDTSKLASGVPDRFSGSGSGTSYSLTISSMEAEDAATYYCLQRSSYPPTFGAGTKLELK
notes: Rat IgG2a hybridoma antibody; Not the effector dead PI-3021; also called PI-3007 (name of the recombinant form)
B4: no binding [3].

B5: PI-HX-3016 (antibody, rat IgG1, V domains shown)
VH: EVQLVESGGGLVKPGASLKLSCVASGFTFSDDWMNWVRQTPGKAMEWIGDIKYDGSYTNYVPSLKNRLTISRDNAKNTLYLQMTNVRSEDTATYYCTSGGVFDYWGQGVMVTVSS
VL: EIVLSQSPTTMAASPGEKVTITCRASSSVSYMHWFQQKSGTSPKPWIYDTSKLASGVPDRFSGSGSGTSYSLTISSMEAEDAATYYCLQRSGYPPTFGAGTKLEVK
notes: Rat IgG1 hybridoma antibody
B5: no binding [3].

B6: PI-3010-AB (antibody, human IgG1, kappa)
heavy: not shown
light: DIQMTQSPASLSTSLGETVSIECLASEGISNDLAWYQQKSGKSPQLLIYAASRLQDGVPSRFSGSGSGTRYSLKISGMQPEDEADYFCQQSYKYPLTFGSGTKLEIKRTVAAPSVFIFPPSDEQLKSGTASVVCLLNNFYPREAKVQWKVDNALQSGNSQESVTEQDSKDSTYSLSSTLTLSKADYEKHKVYACEVTHQGLSSPVTKSFNRGEC
An EC50 [4] of 0.44 nM was found for B6 in this work.

B7: PI-3015-AB (antibody, human IgG1, kappa)
heavy: not shown
light: DIQMTQSPSSLSASVGDRVTITCRASEGISNDLAWYQQKPGKAPKLLIYAASRLQSGVPSRFSGSGSGTDYTLTISSMQPEDFATYYCQQSYKYPLTFGQGTKLEIKRTVAAPSVFIFPPSDEQLKSGTASVVCLLNNFYPREAKVQWKVDNALQSGNSQESVTEQDSKDSTYSLSSTLTLSKADYEKHKVYACEVTHQGLSSPVTKSFNRGEC
An EC50 [4] of 0.5 nM was found for B7 in this work.
